Experimental data from IntAct's records for PubMed 22872700.

B1: Contactin-associated protein-like 2 (Homo sapiens), Q9UHC6-1 (parent)
chain: MQAAPRAGCGAALLLWIVSSCLCRAWTAPSTSQKCDEPLVSGLPHVAFSSSSSISGSYSPGYAKINKRGGAGGWSPSDSDHYQWLQVDFGNRKQISAIATQGRYSSSDWVTQYRMLYSDTGRNWKPYHQDGNIWAFPGNINSDGVVRHELQHPIIARYVRIVPLDWNGEGRIGLRIEVYGCSYWADVINFDGHVVLPYRFRNKKMKTLKDVIALNFKTSESEGVILHGEGQQGDYITLELKKAKLVLSLNLGSNQLGPIYGHTSVMTGSLLDDHHWHSVVIERQGRSINLTLDRSMQHFRTNGEFDYLDLDYEITFGGIPFSGKPSSSSRKNFKGCMESINYNGVNITDLARRKKLEPSNVGNLSFSCVEPYTVPVFFNATSYLEVPGRLNQDLFSVSFQFRTWNPNGLLVFSHFADNLGNVEIDLTESKVGVHINITQTKMSQIDISSGSGLNDGQWHEVRFLAKENFAILTIDGDEASAVRTNSPLQVKTGEKYFFGGFLNQMNNSSHSVLQPSFQGCMQLIQVDDQLVNLYEVAQRKPGSFANVSIDMCAIIDRCVPNHCEHGGKCSQTWDSFKCTCDETGYSGATCHNSIYEPSCEAYKHLGQTSNYYWIDPDGSGPLGPLKVYCNMTEDKVWTIVSHDLQMQTPVVGYNPEKYSVTQLVYSASMDQISAITDSAEYCEQYVSYFCKMSRLLNTPDGSPYTWWVGKANEKHYYWGGSGPGIQKCACGIERNCTDPKYYCNCDADYKQWRKDAGFLSYKDHLPVSQVVVGDTDRQGSEAKLSVGPLRCQGDRNYWNAASFPNPSSYLHFSTFQGETSADISFYFKTLTPWGVFLENMGKEDFIKLELKSATEVSFSFDVGNGPVEIVVRSPTPLNDDQWHRVTAERNVKQASLQVDRLPQQIRKAPTEGHTRLELYSQLFVGGAGGQQGFLGCIRSLRMNGVTLDLEERAKVTSGFISGCSGHCTSYGTNCENGGKCLERYHGYSCDCSNTAYDGTFCNKDVGAFFEEGMWLRYNFQAPATNARDSSSRVDNAPDQQNSHPDLAQEEIRFSFSTTKAPCILLYISSFTTDFLAVLVKPTGSLQIRYNLGGTREPYNIDVDHRNMANGQPHSVNITRHEKTIFLKLDHYPSVSYHLPSSSDTLFNSPKSLFLGKVIETGKIDQEIHKYNTPGFTGCLSRVQFNQIAPLKAALRQTNASAHVHIQGELVESNCGASPLTLSPMSSATDPWHLDHLDSASADFPYNPGQGQAIRNGVNRNSAIIGGVIAVVIFTILCTLVFLIRYMFRHKGTYHTNEAKGAESAESADAAIMNNDPNFTETIDESKKEWLI
partner: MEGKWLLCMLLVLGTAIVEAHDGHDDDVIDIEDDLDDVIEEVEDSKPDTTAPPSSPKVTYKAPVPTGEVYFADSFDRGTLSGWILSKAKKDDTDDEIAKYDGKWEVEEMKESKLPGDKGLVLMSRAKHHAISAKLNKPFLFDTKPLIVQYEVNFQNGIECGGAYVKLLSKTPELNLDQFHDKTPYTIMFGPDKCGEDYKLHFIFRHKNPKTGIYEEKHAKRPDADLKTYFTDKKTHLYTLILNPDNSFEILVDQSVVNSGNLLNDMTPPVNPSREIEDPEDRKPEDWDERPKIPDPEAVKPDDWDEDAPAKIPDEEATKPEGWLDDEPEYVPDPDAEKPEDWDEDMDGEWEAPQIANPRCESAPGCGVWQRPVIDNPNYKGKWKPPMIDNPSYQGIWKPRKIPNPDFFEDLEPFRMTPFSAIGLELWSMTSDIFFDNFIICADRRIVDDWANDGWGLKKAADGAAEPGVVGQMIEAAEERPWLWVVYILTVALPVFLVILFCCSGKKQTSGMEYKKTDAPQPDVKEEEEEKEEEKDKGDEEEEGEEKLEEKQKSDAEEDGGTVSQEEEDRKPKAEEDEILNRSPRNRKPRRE

Variants of: B1
Settings: with calx_human CANX

Q: How did the “effect of a mutation on the interaction” value turn out when D1129H was run?
A: increasing interaction strength
